Non-standard residues stand in square brackets, D forms with d. No end group written: not given here. ANA = not defined here
Experiments:
[1] = target: T1, carcino-embryonic antigen (CEA) (human, UniProt P06731 35-685); test: flow cytometry on CCL 229 (LoVo) CEA expressing cells
T1 construct: whole, on cells; The legends print the cell line as CCI-229; also called surface protein CEA; CEA surface antigen
T1 sequence (looked up): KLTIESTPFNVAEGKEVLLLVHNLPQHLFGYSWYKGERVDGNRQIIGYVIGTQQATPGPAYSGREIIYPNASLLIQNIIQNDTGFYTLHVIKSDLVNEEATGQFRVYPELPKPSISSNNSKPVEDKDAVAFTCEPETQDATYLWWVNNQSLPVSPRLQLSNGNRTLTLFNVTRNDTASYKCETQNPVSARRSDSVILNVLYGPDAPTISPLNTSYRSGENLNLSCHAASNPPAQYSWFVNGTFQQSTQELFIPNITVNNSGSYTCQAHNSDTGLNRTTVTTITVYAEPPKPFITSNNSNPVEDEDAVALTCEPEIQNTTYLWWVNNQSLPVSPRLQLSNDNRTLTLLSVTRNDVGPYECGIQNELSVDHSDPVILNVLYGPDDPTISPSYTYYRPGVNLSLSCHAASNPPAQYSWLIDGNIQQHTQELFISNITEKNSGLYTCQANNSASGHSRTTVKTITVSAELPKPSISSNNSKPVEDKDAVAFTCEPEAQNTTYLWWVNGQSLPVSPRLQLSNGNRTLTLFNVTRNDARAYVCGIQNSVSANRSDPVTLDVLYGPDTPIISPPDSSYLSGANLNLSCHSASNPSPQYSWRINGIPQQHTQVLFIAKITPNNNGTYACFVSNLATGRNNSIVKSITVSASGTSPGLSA
Procedure: A study to look at antibodies generated in sheep to CEA and the ScFv anti CEA-CPG2 Fusion protein was carried out with analysis using flow cytometry. Measurement by Flow Cytometry of Binding Capability of scFv Anti-CEA-CPG2 Using CEA Expressing Cells. Materials: Cells Lines: CRL 1573—control cell line, CCL 229 (LoVo)—CEA expressing cell line Antibodies/Conjugates: CPG2-PE (Phycoerythrin), CPG2 100 U/ml 1:100 dilution of 100 U conjugated ScFv anti-CEA-CPG2-PE UCL, 40-50 U/ml, 0.71 mg/ml protein 2.5 µg/ml in buffer containing BSA Sheep anti-CEA-PE, CF 1110-PE; Stock at 670 µg/ml. Mouse anti human CEA UCL at 3.9 mg/ml 2.5 µg/ml in buffer containing BSA Goat anti-Mouse-PE Southern Biotech 1050-09 L2806-XH69Z kappa chain specific at 0.25 mg/ml used at 1 µg/ml 4.5 ml polystyrene tubes, PBS azide, BSA, PBS+0.5% Formaldehyde (Polysciences #18814), Propidium Iodine (Orpegen at 100 mg/ml) Centrifuge Eppendorf 5810R set to 250G, 5 mins, 4° C. Coulter XL flow cytometer Method: Cultured cells were both used at 2×10^5 cells per tube, cells in tubes were prepared to contain the following 1. Nothing added, auto fluorescence tested 2. Propidium Iodine at a final concentration of 10 µg/ml 3. CPG2-PE 4. ScFv anti CEA-CPG2-PE 5. Sheep anti CEA-PE 6. Mouse anti CEA/anti Mouse-PE Cells were spun down and 100 µl of antibody solution was added to respective tube. […]

[2] = target: ScFv anti CEA-CPG2 fusion protein (Pseudomonas, UniProt P06621 23-415); test: cell-based or functional assay

B1: CPG2-PE (Phycoerythrin) (enzyme, Pseudomonas, UniProt P06621 23-415, looked up)
chain: ALAQKRDNVLFQAATDEQPAVIKTLEKLVNIETGTGDAEGIAAAGNFLEAELKNLGFTVTRSKSAGLVVGDNIVGKIKGRGGKNLLLMSHMDTVYLKGILAKAPFRVEGDKAYGPGIADDKGGNAVILHTLKLLKEYGVRDYGTITVLFNTDEEKGSFGSRDLIQEEAKLADYVLSFEPTSAGDEKLSLGTSGIAYVQVNITGKASHAGAAPELGVNALVEASDLVLRTMNIDDKAKNLRFNWTIAKAGNVSNIIPASATLNADVRYARNEDFDAAMKTLEERAQQKKLPEADVKVIVTRGRPAFNAGEGGKKLVDKAVAYYKEAGGTLGVEERTGGGTDAAYAALSGKPVIESLGLPGFGYHSDKAEYVDISAIPRRLYMAARLIMDLGAGK
modifications: conjugated to phycoerythrin (PE)
notes: PE-labelled enzyme without the scFv, used as a control in flow cytometry; also called CPG2 control; carboxypeptidase G2
Does B1 bind [1]?
Result: no binding (tested: CPG2 100 U/ml 1:100 dilution)

With [ANA]-Glu (reading uncertain; also: printed as ANA-Glu) [CP006] as the binder, how does the “IC50, inhibition assay of CPG2 activity (methotrexate hydrolysis)” value [2] read?
The value was 88.5 µM.

— patent publication US8846861 (dated 2014)
